# Reference: the supplement of paper PMC9112550, “Optimization of the antimicrobial peptide Bac7 by deep mutational scanning” (BMC Biology, 2022)
# System: Escherichia coli TOP10
# Test: shrunken log2 fold change of peptide-encoding DNA abundance (4.5 h post-induction vs induction); higher = less antimicrobial activity (less host growth inhibition)
# Settings: time post-induction: 4.5 h; library: site-saturation at positions 5, 18, 19, 20
# 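Further: peptides expressed intracellularly from a pBAD plasmid library in pooled LB shake-flask culture, induced with 0.3% L-arabinose, DNA abundance read by NGS, three biological replicates, DESeq2 with apeglm shrinkage.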
row,Sequence,shrunken log2 fold change
1,RRIRPRPPRLPRPRPRPNKPPRP,-0.00463
2,RRIRLRPPRLPRPRPRPQAGPRP,-0.0299
3,RRIRERPPRLPRPRPRPNCCPRP,-0.00112
4,RRIRWRPPRLPRPRPRPGQQPRP,-0.17
5,RRIRVRPPRLPRPRPRPSTKPRP,-0.213
6,RRIRERPPRLPRPRPRPTDTPRP,-0.415
7,RRIRKRPPRLPRPRPRPASHPRP,0.442
8,RRIRVRPPRLPRPRPRPISKPRP,-0.184
9,RRIRIRPPRLPRPRPRPFNTPRP,-0.191
10,RRIRVRPPRLPRPRPRPLFTPRP,-0.448
11,RRIRGRPPRLPRPRPRPSHNPRP,-0.189
12,RRIRYRPPRLPRPRPRPAHFPRP,0.0784
13,RRIRLRPPRLPRPRPRPPGGPRP,0.664
14,RRIRERPPRLPRPRPRPTKCPRP,0.0642
15,RRIRFRPPRLPRPRPRPWAFPRP,-0.161
16,RRIRMRPPRLPRPRPRPAWSPRP,0.44
17,RRIRVRPPRLPRPRPRPETQPRP,0.259
18,RRIRRRPPRLPRPRPRPSECPRP,-0.039
19,RRIRNRPPRLPRPRPRPRCVPRP,-0.0119
20,RRIRTRPPRLPRPRPRPSRQPRP,0.15
21,RRIRLRPPRLPRPRPRPMIIPRP,-0.407
22,RRIRLRPPRLPRPRPRPPRRPRP,0.746

row,Sequence,shrunken log2 fold change
1,RRIRLRPPRLPRPRPRPLKGPRP,-0.0279
2,RRIRQRPPRLPRPRPRPHQAPRP,-0.241
3,RRIRCRPPRLPRPRPRPQGAPRP,-0.144
4,RRIRPRPPRLPRPRPRPEAPPRP,0.53
5,RRIRYRPPRLPRPRPRPAQAPRP,0.0486
6,RRIRKRPPRLPRPRPRPMMDPRP,0.0443
7,RRIRARPPRLPRPRPRPWPMPRP,0.18
8,RRIRERPPRLPRPRPRPCNTPRP,-0.118
9,RRIRNRPPRLPRPRPRPLDPPRP,-0.117
10,RRIRVRPPRLPRPRPRPPQHPRP,0.186
11,RRIRYRPPRLPRPRPRPGILPRP,-0.0404
12,RRIRFRPPRLPRPRPRPNKGPRP,-0.606
13,RRIRSRPPRLPRPRPRPIGLPRP,0.074
14,RRIRWRPPRLPRPRPRPLEQPRP,0.392
15,RRIRCRPPRLPRPRPRPGMHPRP,-0.0345
16,RRIRQRPPRLPRPRPRPHVVPRP,-0.086
17,RRIRCRPPRLPRPRPRPLQPPRP,-0.0133
18,RRIRCRPPRLPRPRPRPTACPRP,-0.0786
19,RRIRCRPPRLPRPRPRPWGQPRP,-0.00973
20,RRIRLRPPRLPRPRPRPSDFPRP,-0.131
21,RRIRERPPRLPRPRPRPWWRPRP,0.098
22,RRIRDRPPRLPRPRPRPLTWPRP,0.24

row,Sequence,shrunken log2 fold change
1,RRIRCRPPRLPRPRPRPSVNPRP,-0.348
2,RRIRSRPPRLPRPRPRPWLHPRP,-0.254
3,RRIRGRPPRLPRPRPRPINCPRP,-0.0247
4,RRIRLRPPRLPRPRPRPDPNPRP,0.168
5,RRIRTRPPRLPRPRPRPHDQPRP,0.0187
6,RRIRHRPPRLPRPRPRPKYEPRP,-0.255
7,RRIRTRPPRLPRPRPRPFISPRP,-0.0743
8,RRIRARPPRLPRPRPRPCASPRP,0.158
9,RRIRNRPPRLPRPRPRPEWWPRP,0.315
10,RRIRLRPPRLPRPRPRPANNPRP,-0.116
11,RRIRWRPPRLPRPRPRPPTAPRP,0.876
12,RRIRHRPPRLPRPRPRPVKNPRP,0.0467
13,RRIRTRPPRLPRPRPRPYPWPRP,-0.178
14,RRIRHRPPRLPRPRPRPCQMPRP,-0.0239
15,RRIRVRPPRLPRPRPRPQPMPRP,2.31
16,RRIRPRPPRLPRPRPRPGLLPRP,0.217
17,RRIRLRPPRLPRPRPRPFAWPRP,-0.00134
18,RRIRDRPPRLPRPRPRPHFCPRP,0.23
19,RRIRARPPRLPRPRPRPTDNPRP,0.152
20,RRIRNRPPRLPRPRPRPPGYPRP,0.39
21,RRIRKRPPRLPRPRPRPNRWPRP,0.398
22,RRIRPRPPRLPRPRPRPVNDPRP,-0.106

row,Sequence,shrunken log2 fold change
1,RRIRVRPPRLPRPRPRPPWLPRP,0.365
2,RRIRKRPPRLPRPRPRPLAAPRP,0.847
3,RRIRERPPRLPRPRPRPKQNPRP,-0.073
4,RRIRTRPPRLPRPRPRPHVEPRP,0.0236
5,RRIRGRPPRLPRPRPRPKWRPRP,0.795
6,RRIRPRPPRLPRPRPRPHCEPRP,0.308
7,RRIRVRPPRLPRPRPRPFARPRP,0.206
8,RRIRCRPPRLPRPRPRPDTNPRP,-0.285
9,RRIRLRPPRLPRPRPRPWDYPRP,0.0642
10,RRIRKRPPRLPRPRPRPNDPPRP,-0.0515
11,RRIRSRPPRLPRPRPRPAWGPRP,0.51
12,RRIRDRPPRLPRPRPRPIWRPRP,0.235
13,RRIRWRPPRLPRPRPRPQRYPRP,0.0066
14,RRIRDRPPRLPRPRPRPGCTPRP,0.727
15,RRIRCRPPRLPRPRPRPANKPRP,0.361
16,RRIRWRPPRLPRPRPRPIVLPRP,-0.628
17,RRIRVRPPRLPRPRPRPCNLPRP,-0.163
18,RRIRIRPPRLPRPRPRPMQVPRP,0.00763
19,RRIRVRPPRLPRPRPRPPYQPRP,-0.3
20,RRIRKRPPRLPRPRPRPGQPPRP,0.0678
21,RRIRDRPPRLPRPRPRPDNGPRP,-0.223
22,RRIRMRPPRLPRPRPRPMEMPRP,0.515

row,Sequence,shrunken log2 fold change
1,RRIRQRPPRLPRPRPRPLILPRP,-0.424
2,RRIRLRPPRLPRPRPRPSVHPRP,-0.61
3,RRIRMRPPRLPRPRPRPPWSPRP,0.596
4,RRIRMRPPRLPRPRPRPMPIPRP,0.0625
5,RRIRTRPPRLPRPRPRPTKDPRP,-0.244
6,RRIRTRPPRLPRPRPRPYTEPRP,-0.267
7,RRIRKRPPRLPRPRPRPPSWPRP,0.401
8,RRIRRRPPRLPRPRPRPWMFPRP,0.0935
9,RRIRARPPRLPRPRPRPRWMPRP,0.451
10,RRIRKRPPRLPRPRPRPLNSPRP,0.00355
11,RRIRTRPPRLPRPRPRPIKNPRP,-0.185
12,RRIRTRPPRLPRPRPRPVMRPRP,-0.0406
13,RRIRHRPPRLPRPRPRPWREPRP,-0.0297
14,RRIRARPPRLPRPRPRPWMVPRP,0.0197
15,RRIRQRPPRLPRPRPRPSEWPRP,-0.0519
16,RRIRERPPRLPRPRPRPPYGPRP,-0.244
17,RRIRHRPPRLPRPRPRPKSSPRP,-0.0395
18,RRIRCRPPRLPRPRPRPVHKPRP,0.287
19,RRIRERPPRLPRPRPRPIGWPRP,0.0874
20,RRIRSRPPRLPRPRPRPAQGPRP,0.19
21,RRIRWRPPRLPRPRPRPCFIPRP,-0.423
